Measurements from paper PMC4931470.

Legend:
[1] = target: E22P-Aβ42; test: SEC; Superdex75 10/300GL, PBS pH 7.4, 0.6 mL/min; Aβ solution 25 μM incubated at 37 °C for the indicated duration, supernatant after centrifugation (17,860 x g, 4 °C, 10 min) analysed; dextran standards
[2] = target: E22P-Aβ42 dimer; test: as above

stoichiometry N [1]	stoichiometry N [2]	Substance
6 to 8		E22P-Aβ42 (peptide)
	6 to 8	E22P-Aβ42 dimer (peptide)
